Experimental data: the supplement of paper PMC11246515
± gives the standard deviation of the averaged measurements.

Experiment: total protein half-life in vivo (active degradation + dilution); higher = more stable protein
[1] = E. coli NCM3722 delta-clpP, growth: N-lim chemostat, doubling time 6 h
[2] = E. coli NCM3722 delta-hslV, growth: N-lim chemostat, doubling time 6 h
[3] = E. coli NCM3722 delta-lon, growth: N-lim chemostat, doubling time 6 h
[4] = wild type E. coli NCM3722, growth: C-lim chemostat, doubling time 12 h
[5] = wild type E. coli NCM3722, growth: N-lim chemostat, doubling time 6 h
[6] = wild type E. coli NCM3722, growth: P-lim chemostat, doubling time 6 h
[7] = E. coli NCM3722 delta-clpP delta-lon delta-hslV, growth: N-lim chemostat, doubling time 6 h
[8] = E. coli NCM3722 delta-smpB, growth: N-lim chemostat, doubling time 6 h
[9] = wild type E. coli NCM3722, growth: C-lim chemostat, doubling time 3 h
[10] = wild type E. coli NCM3722, growth: C-lim chemostat, doubling time 6 h
[11] = wild type E. coli NCM3722, growth: N-lim chemostat, doubling time 12 h
[12] = wild type E. coli NCM3722, growth: P-lim chemostat, doubling time 12 h

Row | Sequence | total protein half-life in vivo [1] [h] | total protein half-life in vivo [2] [h] | total protein half-life in vivo [3] [h] | total protein half-life in vivo [4] [h] | total protein half-life in vivo [5] [h] | total protein half-life in vivo [6] [h] | total protein half-life in vivo [7] [h] | total protein half-life in vivo [8] [h] | total protein half-life in vivo [9] [h] | total protein half-life in vivo [10] [h] | total protein half-life in vivo [11] [h] | total protein half-life in vivo [12] [h]
1 | MKKTLLAAGAVLALSSSFTVNAAENDKPQYLSDWWHQSVNVVGSYHTRFGPQIRNDTYLEYEAFAKKDWFDFYGYADAPVFFGGNSDAKGIWNHGSPLFMEIEPRFSIDKLTNTDLSFGPFKEWYFANNYIYDMGRNKDGRQSTWYMGLGTDIDTGLPMSLSMNVYAKYQWQNYGAANENEWDGYRFKIKYFVPITDLWGGQLSYIGFTNFDWGSDLGDDSGNAINGIKTRTNNSIASSHILALNYDHWHYSVVARYWHDGGQWNDDAELNFGNGNFNVRSTGWGGYLVVGYNF [P0A927] | > 8 | 6.33 ± 0.09 | > 8 | 14.1 ± 1 | 6.53 ± 0.7 | 6.08 ± 0.99 | – | – | – | – | – | –
2 | MKKWAVIISAVGLAFAVSGCSSDYVMATKDGRMILTDGKPEIDDDTGLVSYHDQQGNAMQINRDDVSQIIER | 5.4 | 4.24 ± 0.17 | 6.65 ± 0.55 | 7.88 ± 0.34 | 4.76 ± 0.35 | 3.68 ± 0.91 | 4.61 ± 0.25 | 3.25 ± 1.1 | 2.24 ± 0.32 | 4.63 ± 0.37 | 8.92 ± 2.6 | –
3 | MKKWSRHLLAAGALALGMSAAHADDNNTLYFYNWTEYVPPGLLEQFTKETGIKVIYSTYESNETMYAKLKTYKDGAYDLVVPSTYYVDKMRKEGMIQKIDKSKLTNFSNLDPDMLNKPFDPNNDYSIPYIWGATAIGVNGDAVDPKSVTSWADLWKPEYKGSLLLTDDAREVFQMALRKLGYSGNTTDPKEIEAAYNELKKLMPNVAAFNSDNPANPYMEGEVNLGMIWNGSAFVARQAGTPIDVVWPKEGGIFWMDSLAIPANAKNKEGALKLINFLLRPDVAKQVAETIGYPTPNLAARKLLSPEVANDKTLYPDAETIKNGEWQNDVGAASSIYEEYYQKLKAGR [P0AFK9] | 5.36 ± 0.48 | 6.46 ± 0.61 | 6.271 ± 0.061 | 13.6 ± 0.72 | 6.07 ± 0.22 | 5.59 ± 0.35 | – | 5.94 ± 0.35 | 3.44 ± 0.58 | 6.44 ± 0.57 | 11.99 ± 0.032 | 12.5 ± 0.19
4 | MKKYLALALIAPLLISCSTTKKGDTYNEAWVKDTNGFDILMGQFAHNIENIWGFKEVVIAGPKDYVKYTDQYQTRSHINFDDGTITIETIAGTEPAAHLRRAIIKTLLMGDDPSSVDLYSDVDDITISKEPFLYGQVVDNTGQPIRWEGRASNFADYLLKNRLKSRSNGLRIIYSVTINMVPNHLDKRAHKYLGMVRQASRKYGVDESLILAIMQTESSFNPYAVSRSDALGLMQVVQHTAGKDVFRSQGKSGTPSRSFLFDPASNIDTGTAYLAMLNNVYLGGIDNPTSRRYAVITAYNGGAGSVLRVFSNDKIQAANIINTMTPGDVYQTLTTRHPSAESRRYLYKVNTAQKSYRRR [P0C066] | – | 6.24 ± 0.8 | – | 9.66 ± 1.5 | 6.34 ± 0.94 | 7.12 | 6.29 ± 0.53 | 4.92 ± 0.2 | 3.27 ± 0.4 | 5.3 ± 0.52 | 12.6 ± 2.2 | –
5 | MKLAACFLTLLPGFAVAASWTSPGFPAFSEQGTGTFVSHAQLPKGTRPLTLNFDQQCWQPADAIKLNQMLSLQPCSNTPPQWRLFRDGEYTLQIDTRSGTPTLMISIQNAAEPVASLVRECPKWDGLPLTVDVSATFPEGAAVRDYYSQQIAIVKNGQIMLQPAATSNGLLLLERAETDTSAPFDWHNATVYFVLTDRFENGDPSNDQSYGRHKDGMAEIGTFHGGDLRGLTNKLDYLQQLGVNALWISAPFEQIHGWVGGGTKGDFPHYAYHGYYTQDWTNLDANMGNEADLRTLVDSAHQRGIRILFDVVMNHTGYATLADMQEYQFGALYLSGDEVKKSLGERWSDWKPAAGQTWHSFNDYINFSDKTGWDKWWGKNWIRTDIGDYDNPGFDDLTMSLAFLPDIKTESTTASGLPVFYKNKMDTHAKAIDGYTPRDYLTHWLSQWVRDYGIDGFRVDTAKHVELPAWQQLKTEASAALREWKKANPDKALDDKPFWMTGEAWGHGVMQSDYYRHGFDAMINFDYQEQAAKAVDCLAQMDTTWQQMAEKLQGFNVLSYLSSHDTRLFREGGDKAAELLLLAPGAVQIFYGDESSRPFGPTGSDPLQGTRSDMNWQDVSGKSAASVAHWQKISQFRARHPAIGAGKQTTLLLKQGYGFVREHGDDKVLVVWAGQQ | 7.23 ± 0.88 | 4.97 | 7.45 | – | 5.75 | 7.07 | 4.78 ± 0.17 | 5.36 ± 0.33 | 3.262 ± 0.0075 | 6.26 ± 0.66 | 9.72 | 9.37 ± 2.8
